Consider 1 molecule from patent US20080305111A1, “Anti-C35 antibodies for treating cancer” (VACCINEX, INC., priority 2006, published 2008).

Entries after “also recorded” stand apart in the source; their conditions may differ.

One test concerns the target T1, rC35 (Homo sapiens, UniProt Q9BRT3).
T1 construct: made in house; host or cells: E. coli
T1 sequence (Q9BRT3 1-115): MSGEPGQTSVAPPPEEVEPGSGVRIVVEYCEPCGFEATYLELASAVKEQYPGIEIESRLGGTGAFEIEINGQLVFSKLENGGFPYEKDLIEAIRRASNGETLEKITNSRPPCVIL
As to the kind of experiment: Biacore affinity testing of MAb 163 (1:1 kinetic model). It counts as binding. As to the method: To measure affinity using Biacore, a CM5 chip surface was prepared by immobilizing Goat Anti-Human IgG Fc through amine coupling. The monoclonal human antibody MAb 163 was then captured by flow over the chip containing the Goat Anti-Human IgG. The rC35 was then serial diluted into two separate series to cover a wide range of concentration points and binding efficiencies, and then the C35 was allowed to flow over the chip containing bound MAb 163. The binding was recorded in a series of sensograms. The binding was evaluated using BIAevaluation software, where the Ka and Kd were calculated by fitting the curves and correcting for Mass Transfer.
(SPR reads the build-up and loss of mass on a sensor chip optically.)

The target in test [1] is T2, C35 (Homo sapiens, UniProt Q9BRT3).
T2 sequence (Q9BRT3 1-115): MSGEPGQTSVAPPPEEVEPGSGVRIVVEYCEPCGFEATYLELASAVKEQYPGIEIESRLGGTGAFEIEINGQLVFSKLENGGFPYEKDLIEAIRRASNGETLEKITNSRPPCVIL
As to the kind of experiment: Western blot, tumor specific binding of MAb 163. More on the design: endogenous in cells; host or cells: 21MT1-D human breast tumor cell line. (In general: Immunoblotting shows a protein as a band on a membrane.)

In test [2] the test system is C35-positive 21MT1-D cells. The test can be described thus: Immunofluorescence staining (FMAT), C35-positive cells. It counts as cell-based, human. The settings on record: MAb163 at 3, 1, 0.3 or 0.1 μg/ml.
A further test concerns C35-negative H16N2 cells. As to the kind of experiment: Immunofluorescence staining (FMAT), C35-negative cells. It counts as cell-based, human. The settings on record: MAb163 at 3, 1, 0.3 or 0.1 μg/ml.
Test [3] addresses T3, recombinant human C35 (rhC35) (Homo sapiens, UniProt Q9BRT3).
T3 construct: made in house; host or cells: E. coli
T3 sequence (Q9BRT3 1-115): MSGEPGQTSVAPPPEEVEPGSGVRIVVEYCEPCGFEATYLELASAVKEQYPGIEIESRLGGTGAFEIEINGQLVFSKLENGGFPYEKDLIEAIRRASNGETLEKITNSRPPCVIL
The test can be described thus: Epitope mapping by Lys-C digestion of rhC35 and Western blot. It counts as binding. The settings on record: residues numbered from amino terminal methionine of native human C35. An excerpt: To localize the epitope specificity of 1B3 and 1F2 antibodies, recombinant human C35 (rhC35) synthesized with a 6×His tag in E. coli was digested with Lys-C endoproteinase. This enzyme cuts after lysine (K) residues in the protein sequence. […] The full sequence of rhC35, including the amino terminal 6×His tag addition is shown. Amino acid positions are numbered relative to the amino terminal methionine (M) of the native human sequence. Note that digestion at the first and third lysine followed by negatively charged residues is inefficient and some longer combination fragments may be generated. Lys-C endoproteinase was added to purified rhC35 at a 50:1 weight ratio and incubated for 18 hours at 37° C. in 25 mM Tris, pH 8.0. The digest was ethanol precipitated and resolubilized in reducing Tricine sample buffer. […] Peptides were transferred to PVDF membranes and the blots depicted in FIG. 10 were either stained with Coomassie blue (lanes 1-3 of both left and right panels) to detect all peptides or processed with one of the following: 1 μg/ml of the murine 1F2 anti-C35 antibody followed by alkaline phosphatase conjugated goat anti-mouse antibody (lane 4 of left panel); 1 μg/ml of the 1B3 anti-C35 immunoglobulin variable regions linked to human constant regions (MAb11) followed by alkaline phosphatase conjugated goat anti-human antibody (lane 5 of left panel); or anti-6×His tag mouse antibody (Amersham) followed by alkaline phosphatase conjugated goat anti-mouse antibody (lane 4 and 5 of right panel). BCIP/NBT substrate was added and developed to detect the secondary reagents. Molecular weight markers are indicated in the flanking lanes of both panels.
In FIG. 10, the indicated band A migrates at the position of undigested rhC35. Note that band B stains with 1F2 but not MAb11 (1B3) anti-C35 antibody while band C stains with neither 1F2 nor MAb11 (1B3) antibody. Since bands B and C both do stain with anti-6×His tag antibody to the 6×His tag at the amino terminus of rhC35, it may be concluded that both fragments lack C-terminal peptide fragments. […]

The target of test [4] is T2, C35. The test can be described thus: Immunoprecipitation of C35 from 21MT1-D cell lysates. In kind it is binding. More on the design: endogenous in cells; host or cells: 21MT1-D human breast tumor cell line. The settings on record: detected with rabbit anti-C35 polyclonal sera; IgG negative control did not. How it is done:
The number “15” indicates the molecular weight marker at 15 kDalton. The number “163” indicates the mAb163 monoclonal antibody. “Neg IgG” indicates an IgG negative control antibody.
Briefly, 10 ml of MAb163 in CHO cell supernatant was buffer-exchanged into PBS and concentrated to 1 ml. Concentrated MAb 163 was added to protein A beads for greater than one hour. After washing, protein A/MAb163 was added to C35-positive 21MT1-D cell lysates for 2 hours. After washing the beads, the protein was eluted with reducing sample buffer at 100° C.
Immunoprecipitated samples were analyzed by Western blot using rabbit anti-C35 polyclonal sera. As shown in the left lane of FIG. 22, lysate from 100,000 21MT1-D cells was included on the Western blot as a control. The number “15” in FIG. 22 indicates a molecular weight marker at 15 kDalton.

B1: MAb 163: fully human C35-specific antibody; VH from clone H730 (SEQ ID NO:62), VL from clone L74 (SEQ ID NO:66) (antibody, V domains shown)
VH: EVQLVESGGGLVKPGGSLRLSCEVSGITFSNAWMSWVRQAPGKGLEWVGRIKSKTDGGTTDYAAPVKGRFTISRDDSKNTLYLQMNSLKTEDTAVYYCSIGYYYDSSFKYGMDVWGQGTTVTVSS
VL: DIQMTQSPATLSASVGDRVTITCRASQSISRWLAWYQQKPGQAPKVLIYKASTLQSGVPSRFSGSGSGTEFSLTINSLQPDDFATYYCQQYYSYLRTFGQGTKLEIK
modifications: VH of MAb163 (H730); VL of MAb163 (L74)
In the test with rC35 (BIAevaluation, 1:1 kinetic model), B1 displayed a KA of 2.96e+08 M⁻¹. In the test with rC35 (MAb 163 captured on anti-human IgG Fc CM5 chip, rC35 in flow), the ka came out at 284000 M⁻¹ s⁻¹. Also, the “binding in Western blot, tumor cell lysate” value with C35 [1] (21MT1-D human breast tumor cell lysate, MAb163 4.4 ug/ml) was “binds native C35 monomer in tumor cell lysate”. In addition, the “binding in Western blot, normal cell line” value in the test with C35 [1] (H16N2 normal immortalized human breast cell line lysate) was “binding is absent in the normal cell line”. In the test with C35 [1] (rC35 purified from E. coli, 100 ng/lane), the “binding in Western blot, recombinant C35” value was “binds the rC35 monomer (16 kD), dimer (˜32 kD), and larger aggregates”. For the same molecule, the figures for the immunofluorescence staining entry (in test [2]; with C35-negative H16N2 cells) were “show dose-dependent immunofluorescence” and “do not show any immunofluorescence staining”, respectively. The epitope specificity entry in test [3] is given as “recognizes an epitope within amino acid residues 48 to 87 of C35; also recorded: specific for an epitope within amino acid residues 48 to 87 of C35”. Also, the “immunoprecipitation of C35” value with C35 [4] was “immunoprecipitated C35 protein”.
